{"source": "paper PMC3881179", "binders": {"B1": {"name": "dsDNA90 (dsDNA)", "DNA 1": "TACAGATCTACTAGTGATCTATGACTGATCTGTACATGATCTACATACAGATCTACTAGTGATCTATGACTGATCTGTACATGATCTACA", "DNA 2": "TGTAGATCATGTACAGATCAGTCATAGATCACTAGTAGATCTGTATGTAGATCATGTACAGATCAGTCATAGATCACTAGTAGATCTGTA"}, "B2": {"name": "ssDNA90 (ssDNA)", "DNA": "TACAGATCTACTAGTGATCTATGACTGATCTGTACATGATCTACATACAGATCTACTAGTGATCTATGACTGATCTGTACATGATCTACA"}, "B3": {"name": "dsDNA 30-mer (dsDNA)", "DNA 1": "TACAGATCTACTAGTGATCTATGACTGATC", "DNA 2": "GATCAGTCATAGATCACTAGTAGATCTGTA"}, "B4": {"name": "dsDNA 18-mer (dsDNA)", "DNA 1": "TACAGATCTACTAGTGAT", "DNA 2": "ATCACTAGTAGATCTGTA"}}, "key": {"STING C-terminal region [1]": {"biological_target": "T1, STING C-terminal region (UniProt Q86WV6 181-379)", "T1 sequence (Q86WV6 181-379)": "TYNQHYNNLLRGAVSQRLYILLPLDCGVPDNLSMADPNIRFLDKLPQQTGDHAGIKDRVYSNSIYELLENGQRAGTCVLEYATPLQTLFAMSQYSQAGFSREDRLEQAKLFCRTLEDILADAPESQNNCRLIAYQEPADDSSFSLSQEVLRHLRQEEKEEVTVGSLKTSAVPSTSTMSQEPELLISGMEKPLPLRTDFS", "assay": "SPR"}, "STING C-terminal region [2]": {"biological_target": "T1, STING C-terminal region", "assay": "pull-down"}, "[3]": {"biological_target": "T2, STING C-terminal region (hSTING-C) (human, UniProt Q86WV6 152-379)", "T2 sequence (Q86WV6 152-379)": "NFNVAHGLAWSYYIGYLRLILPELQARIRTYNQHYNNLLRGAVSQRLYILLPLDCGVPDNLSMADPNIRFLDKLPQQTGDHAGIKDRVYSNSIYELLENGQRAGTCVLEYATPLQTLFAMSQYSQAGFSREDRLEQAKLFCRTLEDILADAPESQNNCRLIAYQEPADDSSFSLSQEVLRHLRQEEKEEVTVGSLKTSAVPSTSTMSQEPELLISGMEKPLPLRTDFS", "assay": "fluorescence anisotropy"}, "[4]": {"biological_target": "T2, STING C-terminal region (hSTING-C)", "assay": "fluorescence anisotropy", "remark": "listed apart in the source"}}, "note": "Like-named read-outs stand apart in the source and are kept apart here."}
{"binder": "B1", "values": [{"measurement": "Kd", "setting": "STING C-terminal region [1]", "result": 13.7, "unit": "µM"}]}
{"binder": "B2", "values": [{"measurement": "binding result", "setting": "STING C-terminal region [2]", "result": "binds"}]}
{"binder": "B3", "values": [{"measurement": "Kd", "setting": "[3]", "result": "247 ± 38", "unit": "µM"}]}
{"binder": "B4", "values": [{"measurement": "Kd", "setting": "[4]", "result": "337 ± 26", "unit": "µM"}]}
